Molecular target: T1, IGF-I F49A (G1S-A70V background) displayed on phage (human; bacteriophage M13)
T1 chain: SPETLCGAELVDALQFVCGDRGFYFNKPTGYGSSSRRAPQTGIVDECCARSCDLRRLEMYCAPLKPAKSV
Test: competitive phage ELISA; IC50mut/IC50 G1S-A70V
Conditions: remark: other sources report otherwise

relative IC50: > 100
B1: human IGFBP-1, P08833 26-259 (protein, UniProt P08833 26-259, looked up)
chain: APWQCAPCSAEKLALCPPVSASCSEVTRSAGCGCCPMCALPLGAACGVATARCARGLSCRALPGEQQPLHALTRGQGACVQESDASAPHAAEAGSPESPESTEITEEELLDNFHLMAPSEEDHSILWDAISTYDGSKALHVTNIKKWKEPCRIELYRVVESLAKAQETSGEEISKFYLPNCNKNGFYHSRQCETSMDGEAGLCWCVYPWNGKRIPGSPEIRGDPNCQIYFNVQN

Reference: US20020160955A1
